Tests used:
[1] = substrate: PLA; test: Proxy for plastic degradation [HPLC-UV]; conditions: pH 7; 37 °C
[2] = substrate: pNP-C2; test: Proxy for plastic degradation [Specific activity]; conditions: pH 7
[3] = substrate: pNPB; test: Proxy for plastic degradation [Specific activity]; conditions: pH 7
[4] = substrate: PLA; test: Proxy for plastic degradation [Released monomer concentration (HPLC/LC-MS) (LA )]; conditions: pH 7
[5] = Proxy for plastic degradation [Released monomer concentration (HPLC/LC-MS) (BA)] (mmol/mol of enzyme); conditions: pH 7
[6] = Proxy for plastic degradation [Released monomer concentration (HPLC/LC-MS) (TA)] (mmol/mol of enzyme); conditions: pH 7
[7] = substrate: PET; test: as above; conditions: pH 7
[8] = Proxy for plastic degradation [Released monomer concentration (HPLC/LC-MS) (HEB)] (mmol/mol of enzyme); conditions: pH 7
[9] = Proxy for plastic degradation [Released monomer concentration (HPLC/LC-MS) (MHET)] (mmol/mol of enzyme); conditions: pH 7
[10] = substrate: PET; test: as above; conditions: pH 7

B1: unnamed (protein)
chain: MANPYERGPNPTNSSIEALRGPFRVDEERVSRLQARGFGGGTIYYPTDNNTFGAVAISPGYTGTQSSISWLGERLASHGFVVMTIDTNTTLDQPDSRASQLDAALDYMVEDSSYSVRNRIDSSRLAAMGHSMGGGGTLRLAERRPDLQAAIPLTPWHTDKTWGSVRVPTLIIGAENDTIASVRSHSEPFYNSLPGSLDKAYLELDGASHFAPNLSNTTIAKYSISWLKRFVDDDTRYTQFLCPGPSTGWGSDVEEYRSTCPF
[1]
  Proxy for plastic degradation: 14.5 µM
[2]
  Proxy for plastic degradation: 550 U/mg
[3]
  Proxy for plastic degradation: 500 U/mg
[4]
  Proxy for plastic degradation: 14.5 µM
[5]
  Proxy for plastic degradation: 58
[6]
  Proxy for plastic degradation: 18
[7]
  Proxy for plastic degradation: 21.5
[8]
  Proxy for plastic degradation: 53
[9]
  Proxy for plastic degradation: 35
[10]
  Proxy for plastic degradation: 19.8

Reference: the PETadex activity labels (doi:10.3390/polym4010617)
